Assay results from article PMC10692205, “Pyroptosis inhibiting nanobodies block Gasdermin D pore formation” (Nature Communications, 2023).

Columns and labels:
[1] = target: human wild-type, full length Gasdermin D (GSDMD 1-484), chemically biotinylated (human) (UniProt P57764); assay: SPR; Biacore 8K; chemically biotinylated full length GSDMD captured on Series S Sensor Chip CAP; nanobodies injected as analytes, multi-cycle kinetics (VHH-1, -2, -3, -5: 0.5-32 nM; VHH-4, -6: 64-4096 nM); 25 °C; 20 mM HEPES pH 8.0, 200 mM NaCl, 5 mM DTT, 0.05% Tween20; flow 30 µl/min; association 120 s, dissociation 300 s; 1:1 binding model
[2] = target: T1, chemically biotinylated full length human Gasdermin D (GSDMD) (human, UniProt P57764 1-484, chemically biotinylated (ChromaLink Biotin), approximately 2 biotins per molecule; sites not stated); assay: SPR
T1 chain: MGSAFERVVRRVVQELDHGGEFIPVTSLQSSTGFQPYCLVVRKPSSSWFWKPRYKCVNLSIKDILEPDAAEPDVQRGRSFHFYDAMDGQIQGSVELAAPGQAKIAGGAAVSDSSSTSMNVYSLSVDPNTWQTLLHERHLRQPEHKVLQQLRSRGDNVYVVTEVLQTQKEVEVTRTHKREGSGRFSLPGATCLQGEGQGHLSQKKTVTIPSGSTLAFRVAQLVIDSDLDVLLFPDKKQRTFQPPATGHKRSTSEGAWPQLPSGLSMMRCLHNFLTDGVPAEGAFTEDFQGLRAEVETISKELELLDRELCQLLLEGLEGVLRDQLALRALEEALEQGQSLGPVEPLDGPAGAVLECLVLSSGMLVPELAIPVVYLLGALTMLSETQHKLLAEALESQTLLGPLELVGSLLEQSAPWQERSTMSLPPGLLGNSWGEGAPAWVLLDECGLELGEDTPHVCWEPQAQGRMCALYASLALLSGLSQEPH

[3] = target: T2, human wild-type, full length Gasdermin D (GSDMD) 1-484 (Homo sapiens (Human)., UniProt P57764); assay: nanoDSF thermal shift; nanobodies titrated to GSDMD (5 µM) in increasing concentrations; heated 20 to 90 °C at 1.5 °C/min; fluorescence at 330 and 350 nm; conditions: both partners purified
T2 construct: human Gasdermin D, wild-type, full length, residues 1-484; also called recombinant GSDMD; full length GSDMD; source: E. coli Rosetta (DE3), purified (Ni-NTA, ULP1 cleavage, second Ni-NTA, SEC); not shown: His6, N-terminal, cleaved; SUMO, N-terminal, cleaved

[4] = target: T3, human wild-type, full length Gasdermin D (GSDMD 1-484), chemically biotinylated (Homo sapiens (Human)., UniProt P57764, chemically biotinylated (ChromaLink Biotin), approximately 2 biotins per molecule); assay: SPR; Biacore 8K; chemically biotinylated full length GSDMD captured on Series S Sensor Chip CAP; nanobodies injected as analytes, multi-cycle kinetics (VHH-1, -2, -3, -5: 0.5-32 nM; VHH-4, -6: 64-4096 nM); 25 °C; 20 mM HEPES pH 8.0, 200 mM NaCl, 5 mM DTT, 0.05% Tween20; flow 30 µl/min; association 120 s, dissociation 300 s; 1:1 binding model; conditions: both partners purified
T3 construct: human Gasdermin D (GSDMD), wild type, full length, residues 1-484; also called human GSDMD wt, f.l; hGSDMD; source: E. coli Rosetta (DE3), purified (Ni-NTA, SUMO cleavage by ULP1, second Ni-NTA, SEC S200); chemically biotinylated (ChromaLink Biotin Labeling kit); not shown: His6-SUMO, N-terminal, cleaved

[5] = target: T4, chemically biotinylated full length human Gasdermin D (GSDMD) (Homo sapiens (Human)., UniProt P57764, chemically biotinylated (ChromaLink Biotin), approximately 2 biotins per molecule; sites not stated); assay: SPR; chemically biotinylated GSDMD captured on a Series S Sensor Chip CAP (biotin capture kit); nanobodies injected as analytes, multi-cycle kinetics, 120 s association, 300 s dissociation, 1:1 binding model; 25 °C; 20 mM HEPES pH 8.0, 200 mM NaCl, 5 mM DTT, 0.05% Tween20; conditions: both partners purified
T4 construct: human Gasdermin D, wild-type, full length, residues 1-484; also called chemically biotinylated GSDMD; not shown: His6, N-terminal, cleaved; SUMO, N-terminal, cleaved

[6] = target: T2, human wild-type, full length Gasdermin …; assay: cell-based or functional assay
[7] = target: T5, GSDMD_(Δ184-194/Δ247-272) (human, UniProt P57764, Δ184-194 | Δ247-272); assay: SEC-MALS; GSDMD_(Δ184-194/Δ247-272) mixed with VHH GSDMD-2, VHH GSDMD-6 or both at equimolar concentrations (189 µM); Superose 6 10/300 GL in GSDMD-SEC buffer; conditions: both partners purified
T5 construct: human Gasdermin D 1-484 with residues 184-194 (in the NTD) and 247-272 (linker between the domains) deleted; also called GSDMD crystallization construct; source: E. coli Rosetta (DE3), purified (Ni-NTA, ULP1 cleavage, second Ni-NTA, SEC); not shown: His6, N-terminal, cleaved; SUMO, N-terminal, cleaved

B1: VHH_(GSDMD-4) (VHH)
VHH: QVQLVESGGGLVQPGGSLRLSCAASGFTLDRHAIAWFRQAPGLEREGVVCTSSSGAITNTADSVKGRFTISRDDAKNTVYLQMNSLKPEDTAIYYCAVRELWTVQPICEPRPRAYAYWGQGTQVTVSS
notes: source: E. coli WK6, periplasmic expression (pHEN6), purified (Ni-NTA, gel filtration)
[1]
  koff: 0.00161 s⁻¹
  kon: 2890 M⁻¹ s⁻¹
[2]
  Kd: 559 nM
[3]
  binding result: binds

B2: VHH_(GSDMD-1) (VHH)
VHH: QVQLVESGGALVQPGGSLRLSCSASGFTFSKYLMSWYRQAPGKERELVATITTAGGNTNYADSVKGRFTISRDNAKNTVYLQMNSLKPEDTAVYYCKASGGTIRTVNETYWGQGTQVTVSS
notes: also called VHH-1; source: E. coli WK6, periplasmic expression (pHEN6), purified (Ni-NTA, SEC S75)
[4]
  Kd: 0.305 nM
  koff: 0.00198 s⁻¹
  kon: 6.48e+06 M⁻¹ s⁻¹

B3: VHH_(GSDMD-5) (VHH)
VHH: QVQLVETGGGLVQPGGSLRLSCAASGFVFSINPMNWYRQAPGKERELVAYISMRGSTTNYADSVKGRFIISRDNAKNTLYLQMNSLKPEDTAVYYCNAPSRSVWGQGTQVTVSS
notes: also called VHH-5; source: E. coli WK6, periplasmic expression (pHEN6), purified (Ni-NTA, SEC S75)
[4]
  Kd: 0.494 nM
  koff: 0.00149 s⁻¹
  kon: 3.02e+06 M⁻¹ s⁻¹

B4: VHH_(GSDMD-6) (VHH)
VHH: QVQLVETGGGLVQPGGSLRLSCTASGFIFSANQMNWVRQAPGKGLEWLSGISTRGDTTSYADSVKGRFTISRDNAKNTLYLQMNSLQPDDTAVYFCARVCIRGPEPKLRCDDWGQGTQVTVSS
notes: also called VHH-6; source: E. coli WK6, periplasmic expression (pHEN6), purified (Ni-NTA, SEC S75)
[4]
  Kd: 143 nM
  koff: 0.0201 s⁻¹
  kon: 141000 M⁻¹ s⁻¹

B5: VHH_(GSDMD-2) (VHH)
VHH: QVQLVESGGGLVQPGGSLRLSCVDSRSWINVYGANWYRQAPGKERELVAALTSGGTTNYADSVKGRFTISRDNAKNTVYLQMRDLKPEDTAVYYCNLERYTGSSVYPWGQGTQVTVSS
notes: also called VHH-2; source: E. coli WK6, periplasmic expression (pHEN6), purified (Ni-NTA, SEC S75)
[4]
  Kd: 0.637 nM
  koff: 0.000951 s⁻¹
  kon: 1.49e+06 M⁻¹ s⁻¹

B6: VHH_(GSDMD-3) (VHH)
VHH: QVQLVETGGGLVQPGGSLRLSCAASGFTLDIYNMGWFRQAPGKEREGVSCISSRYGTSTYYADSVKGRFTISRDNAKNTVYLQMNNLKPEDTAVYYCATVSWRFTTNQDVCLTPSVSGYWGQGTQVTVSS
notes: also called VHH-3; source: E. coli WK6, periplasmic expression (pHEN6), purified (Ni-NTA, SEC S75)
[4]
  Kd: 0.551 nM
  koff: 0.00154 s⁻¹
  kon: 2.8e+06 M⁻¹ s⁻¹

B7: VHH_(GSDMD-1) (VHH)
VHH: QVQLVESGGALVQPGGSLRLSCSASGFTFSKYLMSWYRQAPGKERELVATITTAGGNTNYADSVKGRFTISRDNAKNTVYLQMNSLKPEDTAVYYCKASGGTIRTVNETYWGQGTQVTVSS
notes: raised by immunization of an alpaca with full-length recombinant human GSDMD; also called VHH_(GSDMD-1)-LPETG-His; source: E. coli WK6, periplasmic expression (pHEN6), purified (Ni-NTA, gel filtration); not shown: LPETG, C-terminal, kept; His tag, C-terminal, kept
[5]
  Kd: 0.31 nM
[6]
  IC50 of calcein release through GSDMD pores in the liposome leakage assay (nanobody 10 nM to 10 µM, 0.5 µM full length GSDMD, caspase-4, 180 min); what is blocked: formation of functional GSDMD pores: 220 nM

B8: VHH_(GSDMD-2) (VHH)
VHH: QVQLVESGGGLVQPGGSLRLSCVDSRSWINVYGANWYRQAPGKERELVAALTSGGTTNYADSVKGRFTISRDNAKNTVYLQMRDLKPEDTAVYYCNLERYTGSSVYPWGQGTQVTVSS
notes: CDR1, -2, -3 of 10, 9 and 12 residues; disulfide C22-C95; also called VHH_(GSDMD-2)-LPETG-His; source: E. coli WK6, periplasmic expression (pHEN6), purified (Ni-NTA, gel filtration); not shown: LPETG, C-terminal, kept; His tag, C-terminal, kept
[5]
  Kd: 0.64 nM
[6]
  IC50 of calcein release through GSDMD pores in the liposome leakage assay (nanobody 10 nM to 10 µM, 0.5 µM full length GSDMD, caspase-4, 180 min); what is blocked: formation of functional GSDMD pores: 650 nM
[7]
  stoichiometry N: 1

B9: VHH_(GSDMD-6) (VHH)
VHH: QVQLVETGGGLVQPGGSLRLSCTASGFIFSANQMNWVRQAPGKGLEWLSGISTRGDTTSYADSVKGRFTISRDNAKNTLYLQMNSLQPDDTAVYFCARVCIRGPEPKLRCDDWGQGTQVTVSS
notes: CDR3 of 15 residues with an additional disulfide C100-C110; also called VHH_(GSDMD-6)-HA-His; source: E. coli WK6, periplasmic expression (pHEN6), purified (Ni-NTA, gel filtration); not shown: HA, C-terminal, kept; His tag, C-terminal, kept
[6]
  IC50 of calcein release through GSDMD pores in the liposome leakage assay (nanobody 10 nM to 10 µM, 0.5 µM full length GSDMD, caspase-4, 180 min); what is blocked: formation of functional GSDMD pores: 1300 nM
[7]
  stoichiometry N: 1

B10: VHH_(GSDMD-3) (VHH)
VHH: QVQLVETGGGLVQPGGSLRLSCAASGFTLDIYNMGWFRQAPGKEREGVSCISSRYGTSTYYADSVKGRFTISRDNAKNTVYLQMNNLKPEDTAVYYCATVSWRFTTNQDVCLTPSVSGYWGQGTQVTVSS
notes: as for B1
[5]
  Kd: 0.55 nM

B11: VHH_(GSDMD-5) (VHH)
VHH: QVQLVETGGGLVQPGGSLRLSCAASGFVFSINPMNWYRQAPGKERELVAYISMRGSTTNYADSVKGRFIISRDNAKNTLYLQMNSLKPEDTAVYYCNAPSRSVWGQGTQVTVSS
notes: as for B1
[5]
  Kd: 0.49 nM
